Positions count from the first letter of the chain named. In names and notes the source's numbering stands.

Experimental findings from paper PMC12416549 (2024) are described below.

First the molecules themselves.
T1: TNFR1 (Homo sapiens, UniProt P19438)
T1 chain: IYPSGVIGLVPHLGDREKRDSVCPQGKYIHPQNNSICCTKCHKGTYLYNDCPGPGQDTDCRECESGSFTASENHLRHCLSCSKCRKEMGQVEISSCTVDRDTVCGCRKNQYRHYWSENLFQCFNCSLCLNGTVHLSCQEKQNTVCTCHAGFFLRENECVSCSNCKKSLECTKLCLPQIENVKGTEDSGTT

B1: W68I (designed binder)
chain: MTLQELLREEALRRAEAEAFRYALELLAEKFPEQKEYLLDLAEEIESQIRSLSGVDVEDVRKFLDKEIAWVKELLAEHPAELAEVEAARAARLAELRAEVEAKVAA
B2: A90N (designed binder)
chain: B1 chain with I68W, A90N
B3: K62M (designed binder)
chain: B1 chain with K62M, I68W
B4: E5G (designed binder)
chain: B1 chain with E5G, I68W
B5: A17S (designed binder)
chain: B1 chain with A17S, I68W
B6: E95G (designed binder)
chain: B1 chain with I68W, E95G
B7: A17E (designed binder)
chain: B1 chain with A17E, I68W
B8: R92C (designed binder)
chain: B1 chain with I68W, R92C
B9: E73P (designed binder)
chain: B1 chain with I68W, E73P
B10: F31H (designed binder)
chain: B1 chain with F31H, I68W
B11: L27C (designed binder)
chain: B1 chain with L27C, I68W
B12: A106C (designed binder)
chain: B1 chain with I68W, A106C
B13: F20K (designed binder)
chain: B1 chain with F20K, I68W
B14: I49Q (designed binder)
chain: B1 chain with I49Q, I68W
B15: A28H (designed binder)
chain: B1 chain with A28H, I68W
B16: G54V (designed binder)
chain: B1 chain with G54V, I68W
B17: K30C (designed binder)
chain: B1 chain with K30C, I68W
B18: Q48E (designed binder)
chain: B1 chain with Q48E, I68W
B19: L24S (designed binder)
chain: B1 chain with L24S, I68W
B20: A76R (designed binder)
chain: B1 chain with I68W, A76R
B21: L93V (designed binder)
chain: B1 chain with I68W, L93V
B22: V104K (designed binder)
chain: B1 chain with I68W, V104K
B23: R97V (designed binder)
chain: B1 chain with I68W, R97V
B24: L93I (designed binder)
chain: B1 chain with I68W, L93I
B25: M1L (designed binder)
chain: B1 chain with M1L, I68W
B26: E18Y (designed binder)
chain: B1 chain with E18Y, I68W
B27: L75H (designed binder)
chain: B1 chain with I68W, L75H
B28: V71C (designed binder)
chain: B1 chain with I68W, V71C
B29: L64E (designed binder)
chain: B1 chain with L64E, I68W
B30: A88R (designed binder)
chain: B1 chain with I68W, A88R
B31: P79V (designed binder)
chain: B1 chain with I68W, P79V
B32: I49Y (designed binder)
chain: B1 chain with I49Y, I68W
B33: L74A (designed binder)
chain: B1 chain with I68W, L74A
B34: R21N (designed binder)
chain: B1 chain with R21N, I68W
B35: F63A (designed binder)
chain: B1 chain with F63A, I68W
B36: V104L (designed binder)
chain: B1 chain with I68W, V104L
B37: A83S (designed binder)
chain: B1 chain with I68W, A83S
B38: A105E (designed binder)
chain: B1 chain with I68W, A105E
B39: A23K (designed binder)
chain: B1 chain with A23K, I68W
B40: E25K (designed binder)
chain: B1 chain with E25K, I68W

In this experiment the target is T1, TNFR1. As to the kind of experiment: yeast display SC50.
Turning to B1, the “apparent Kd (screen)” value is 0.79 nM.
The result for B2 reads 0.653 nM; that for B3, 0.718 nM.
The result for B4 reads 0.653 nM; that for B5, 0.956 nM.
Regarding B6, the “apparent Kd (screen)” value was determined as 0.653 nM.
Regarding B7, the “apparent Kd (screen)” value came to 0.229 nM.
Regarding B8, the “apparent Kd (screen)” value amounted to 0.718 nM.
Turning to B9, the “apparent Kd (screen)” value is 5.31 nM.
As to B10, the “apparent Kd (screen)” value is 1.4 nM.
For the molecule B11, the “apparent Kd (screen)” value came out at 0.539 nM.
With B12, the “apparent Kd (screen)” value was determined as 1.16 nM.
The result for B13 reads 22.2 nM; that for B14, 0.368 nM.
With B15, the “apparent Kd (screen)” value worked out at 7.78 nM.
With B16, the “apparent Kd (screen)” value amounted to 0.653 nM.
The result for B17 reads 0.539 nM; that for B18, 0.142 nM; that for B19, 0.869 nM.
The result for B20 reads 0.49 nM; that for B21, 0.869 nM.
As for B22, the “apparent Kd (screen)” value worked out at 0.593 nM.
The result for B23 reads 0.49 nM.
For the molecule B24, the “apparent Kd (screen)” value came out at 0.539 nM.
On to B25, for which the “apparent Kd (screen)” value was found to be 0.653 nM.
For B26, the “apparent Kd (screen)” value came out at 0.539 nM.
The result for B27 reads 0.539 nM; that for B28, 0.653 nM; that for B29, 5.31 nM.
In the case of B30, the “apparent Kd (screen)” value turned out to be 0.593 nM.
Regarding B31, the “apparent Kd (screen)” value came to 0.79 nM.
For the molecule B32, the “apparent Kd (screen)” value came out at 2.48 nM.
Regarding B33, the “apparent Kd (screen)” value is 1.69 nM.
The result for B34 reads 0.653 nM; that for B35, 1.27 nM.
For B36, the “apparent Kd (screen)” value worked out at 0.718 nM.
The result for B37 reads 0.539 nM; that for B38, 0.593 nM; that for B39, 0.539 nM.
Take B40: the “apparent Kd (screen)” value was determined as 0.446 nM.
